Assay results reported in ChEMBL document CHEMBL4033784, “Discovery of 1,5-Diphenylpyrazole-3-Carboxamide Derivatives as Potent, Reversible, and Selective Monoacylglycerol Lipase (MAGL) Inhibitors” (J Med Chem, 2018).

Substrate: Cc1cccc(Cn2nc(C(=O)N3CCC(Cc4ccccc4)CC3)cc2-c2ccc(O)cc2)c1
Details: Homo sapiens
Description: Competitive inhibition of recombinant human MAGL assessed as substrate Km using 4-NPA as substrate after 30 mins by Michaelis-Menten plot analysis

B1: Monoglyceride lipase (Homo sapiens), Q99685 (protein)
chain: MPEESSPRRTPQSIPYQDLPHLVNADGQYLFCRYWKPTGTPKALIFVSHGAGEHSGRYEELARMLMGLDLLVFAHDHVGHGQSEGERMVVSDFHVFVRDVLQHVDSMQKDYPGLPVFLLGHSMGGAIAILTAAERPGHFAGMVLISPLVLANPESATTFKVLAAKVLNLVLPNLSLGPIDSSVLSRNKTEVDIYNSDPLICRAGLKVCFGIQLLNAVSRVERALPKLTVPFLLLQGSADRLCDSKGAYLLMELAKSQDKTLKIYEGAYHVLHKELPEVTNSVFHEINMWVSQRTATAGTASPP
Question: How did the Km turn out when B1 was run?
Answer: 210 µM
